# Test results taken from patent publication US10233219 (TUFTS MEDICAL CENTER, dated 2019).
# Non-standard residues stand in square brackets, D forms with d. No end group written: not given here. *: point of attachment. PEG8 = NCCOCCOCCOCCOCCOCCOCCOCCOCCC(=O)O; Palmitoyl = CCCCCCCCCCCCCCCC(=O)*; Tic = O=C(O)[C@@H]1Cc2ccccc2CN1
# T1: mouse CMKLR1 (chemerin receptor) (mouse, UniProt P97468 1-371)
# T1 sequence (looked up): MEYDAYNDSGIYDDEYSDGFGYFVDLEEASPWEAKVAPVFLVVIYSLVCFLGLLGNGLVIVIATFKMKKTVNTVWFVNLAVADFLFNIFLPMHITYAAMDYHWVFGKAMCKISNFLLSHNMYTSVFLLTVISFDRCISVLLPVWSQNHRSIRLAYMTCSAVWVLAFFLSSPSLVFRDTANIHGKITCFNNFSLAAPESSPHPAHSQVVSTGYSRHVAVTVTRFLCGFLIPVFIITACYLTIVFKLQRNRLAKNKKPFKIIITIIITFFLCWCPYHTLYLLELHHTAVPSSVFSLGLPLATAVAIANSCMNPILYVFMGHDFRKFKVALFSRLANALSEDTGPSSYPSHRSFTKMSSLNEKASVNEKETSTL
# T2: human CMKLR1 (chemerin receptor) (human, UniProt Q99788 1-373)
# T2 sequence (looked up): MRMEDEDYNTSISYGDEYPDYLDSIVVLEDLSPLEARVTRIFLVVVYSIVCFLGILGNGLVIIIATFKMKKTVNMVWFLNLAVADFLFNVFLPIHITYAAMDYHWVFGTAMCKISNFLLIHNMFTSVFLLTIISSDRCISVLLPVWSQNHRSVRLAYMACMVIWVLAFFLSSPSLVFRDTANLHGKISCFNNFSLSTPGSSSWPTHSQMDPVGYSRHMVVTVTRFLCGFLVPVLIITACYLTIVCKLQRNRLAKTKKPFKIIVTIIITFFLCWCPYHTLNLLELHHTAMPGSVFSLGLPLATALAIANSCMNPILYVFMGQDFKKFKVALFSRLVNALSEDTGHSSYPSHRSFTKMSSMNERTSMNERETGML
# How the values were obtained:
# Experiment in all cases: cell-based or functional assay
# [1] = target: T1, mouse CMKLR1 (chemerin receptor)
# neurokinin 1 receptor = neurokinin 1 receptor (human, UniProt P25103 1-407)
# Chain of neurokinin 1 receptor (P25103 whole entry): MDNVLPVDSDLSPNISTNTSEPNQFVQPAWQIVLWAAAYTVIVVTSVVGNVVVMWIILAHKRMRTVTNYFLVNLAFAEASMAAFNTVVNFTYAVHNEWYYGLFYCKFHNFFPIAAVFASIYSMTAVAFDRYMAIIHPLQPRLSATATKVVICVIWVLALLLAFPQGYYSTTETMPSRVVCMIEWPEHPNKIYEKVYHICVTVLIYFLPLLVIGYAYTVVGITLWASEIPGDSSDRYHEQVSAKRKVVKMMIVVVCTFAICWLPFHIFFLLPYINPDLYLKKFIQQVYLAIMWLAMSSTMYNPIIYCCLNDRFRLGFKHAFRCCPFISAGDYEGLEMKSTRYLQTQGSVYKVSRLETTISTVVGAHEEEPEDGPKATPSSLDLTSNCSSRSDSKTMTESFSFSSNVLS
# [2] = target: T2, human CMKLR1 (chemerin receptor)
EC50 [1],pEC50 [1],EC50 (neurokinin 1 receptor),EC50 [2],"EC50 (nM), + wash [2]",pEC50 [2],"pEC50, + wash [2]","EC50 (nM), + wash [1]","pEC50, + wash [1]",Binder
13.7 nM,8.01,–,–,–,–,–,–,–,s-Chem 21-157 (soluble recombinant human chemerin corresponding to amino acids 21-157) (ligand) ELTEAQRRGLQVALEEFHKHPPVQWAFQETSVESAVDTPFPAGIFVRLEFKLQQTSCRKRDWKKPECKVRPNGRKRKCLACIKLGSEDKVLGRLVHCPIETQVLREAEEHQETQCLRVQRAGEDPHSFYFPGQFAFS
–,–,6.1 nM,–,–,–,–,–,–,{Palmitoyl-PEG8}-KGGRPKPQQFFGLM-OH (SMILES CCCCCCCCCCCCCCCC(=O)NCCOCCOCCOCCOCCOCCOCCOCCOCCC(=O)N[C@@H](CCCCN)C(=O)NCC(=O)NCC(=O)N[C@@H](CCCNC(=N)N)C(=O)N1CCC[C@H]1C(=O)N[C@@H](CCCCN)C(=O)N1CCC[C@H]1C(=O)N[C@@H](CCC(N)=O)C(=O)N[C@@H](CCC(N)=O)C(=O)N[C@@H](Cc1ccccc1)C(=O)N[C@@H](Cc1ccccc1)C(=O)NCC(=O)N[C@@H](CC(C)C)C(=O)N[C@@H](CCSC)C(=O)O) [l-SubP-COOH (lipidated Substance P with a C-terminal free acid)]
2 nM,8.7,–,2.6 nM,27.1 nM,8.59,7.6,10.4 nM,7.96,"{Palmitoyl-PEG8}-GG[dY]FLPSQF[dA][Tic]S (also: D-Ser, which S not given here) [l-Stable Chem (lipidated stable chemerin peptide)]"
11.9 nM,7.92,–,60.6 nM,–,7.21,–,–,–,"H-[dY]FLPSQF[dA][Tic]S (also: D-Ser, which S not given here) [s-Stable Chem (soluble stable chemerin peptide)]"
